# Reference: US20130302250A1 (published 2013)
# Legend:
# [1] = target: T1, rat serum albumin (rat, UniProt P02770 25-608); assay: SPR (BIAcore), pH 7.4
# T1 construct: also called RSA; rat albumin
# [2] = target: T2, human serum albumin (human, UniProt P02768 25-609); assay: SPR (BIAcore), pH 7.4
# T2 construct: also called HSA; HAS
# [3] = target: T3, mouse serum albumin (mouse, UniProt P07724 25-608); assay: SPR (BIAcore), pH 7.4
# T3 construct: also called MSA; mouse albumin
# [4] = target: T1, rat serum albumin; assay: SPR (BIAcore), pH 6.0
# [5] = target: T2, human serum albumin; assay: SPR (BIAcore), pH 6.0
# [6] = target: T3, mouse serum albumin; assay: SPR (BIAcore), pH 6.0
# T3 sequence (P07724 25-608 limits assumed): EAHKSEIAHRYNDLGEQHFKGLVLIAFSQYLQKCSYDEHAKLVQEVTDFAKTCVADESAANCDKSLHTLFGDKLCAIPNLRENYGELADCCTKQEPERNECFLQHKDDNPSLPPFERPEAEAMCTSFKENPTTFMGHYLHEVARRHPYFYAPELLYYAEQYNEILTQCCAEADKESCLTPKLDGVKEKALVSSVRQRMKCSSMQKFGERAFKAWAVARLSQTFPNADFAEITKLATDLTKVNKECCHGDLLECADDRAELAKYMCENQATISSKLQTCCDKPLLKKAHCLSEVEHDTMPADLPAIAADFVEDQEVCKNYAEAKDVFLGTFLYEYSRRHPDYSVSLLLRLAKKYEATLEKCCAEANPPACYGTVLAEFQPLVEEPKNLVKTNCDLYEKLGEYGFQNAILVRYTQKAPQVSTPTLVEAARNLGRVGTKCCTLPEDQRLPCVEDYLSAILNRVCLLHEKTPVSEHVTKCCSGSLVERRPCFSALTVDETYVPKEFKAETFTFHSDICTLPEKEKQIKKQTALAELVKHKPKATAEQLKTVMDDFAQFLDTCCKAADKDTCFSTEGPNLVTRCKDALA
# T1 sequence (P02770 25-608 limits assumed): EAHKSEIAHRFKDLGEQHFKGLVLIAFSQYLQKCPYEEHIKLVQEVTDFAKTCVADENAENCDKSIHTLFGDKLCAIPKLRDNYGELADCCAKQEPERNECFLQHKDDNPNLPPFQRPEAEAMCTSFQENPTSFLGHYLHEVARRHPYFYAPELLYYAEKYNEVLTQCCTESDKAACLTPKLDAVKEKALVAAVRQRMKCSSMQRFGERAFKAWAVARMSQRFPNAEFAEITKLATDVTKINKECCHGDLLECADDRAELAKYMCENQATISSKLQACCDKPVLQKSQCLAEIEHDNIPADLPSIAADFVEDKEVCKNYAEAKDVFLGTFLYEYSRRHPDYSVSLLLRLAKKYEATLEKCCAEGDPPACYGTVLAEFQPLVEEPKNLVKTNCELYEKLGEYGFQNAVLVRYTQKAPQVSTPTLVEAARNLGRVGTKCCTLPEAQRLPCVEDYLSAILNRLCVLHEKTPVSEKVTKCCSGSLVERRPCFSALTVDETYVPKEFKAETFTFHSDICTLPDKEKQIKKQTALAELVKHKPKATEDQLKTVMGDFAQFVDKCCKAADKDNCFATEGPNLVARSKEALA
% Surface Active [1],% Surface Active [2],% Surface Active [3],% Surface Active [4],% Surface Active [5],% Surface Active [6],Binder
72.9%,77.8%,78.2%,17.4%,29%,16.3%,"huE06 v1.1 (VNAR, Humanized VNAR; also called humanized E06 variant 1.1) VNAR: TRVDQSPSSLSASVGDRVTITCVLTDTSYPLYSTYWYQQKPGSSNKEQISISGRYSESVNKGTKSFTLTISSLQPEDFATYYCRAMGTNIWTGDGAGTKVEIKH"
79.3%,79.8%,78.2%,27.4%,39.3%,24.5%,"huE06 v1.10 (VNAR, Humanized VNAR; also called hE06v1.10) VNAR: TRVDQSPSSLSASVGDRVTITCVLTDTSYPLYSTYWYRKNPGSSNKEQISISGRYSESVNKGTKSFTLTISSLQPEDFATYYCRAMGTNIWTGDGAGTKVEIKH"
88.4%,85.3%,85.2%,39.5%,49.6%,34.2%,"E06 (VNAR, Shark (Squalus acanthias) VNAR single domain, type IV; tested as monomeric 6xHis-tagged protein; also called E06-AAA-6xHis; VNAR clone E06) VNAR: TRVDQTPRTATRETGESLTINCVLTDTSYPLYSTYWYRKNPGSSNKEQISISGRYVESVNKGTKSFSLRIKDLTVADSATYICRAMGTNIWTGDGAGTVLTVNA"
